According to patent publication US20130324474A1 (Eli Lilly, published 2013):
Substitutions are numbered along the chain they refer to. Numbers in names are those of the source. Values belong to the binder of their own block, whether it stands above or below them.

Tests used:
[1] = biological target: T1, Recombinant Human GFRα-1/GDNF Rα-1 Fc Chimera (human, UniProt P56159 25-429); assay: ELISA, plate-bound human GFRα1-Fc; 4 C sample
T1 construct: Purchased Fc chimera; It was captured on protein A in Biacore and coated on the plate in ELISA; also called GFRα1-Fc; recombinant human GFRα1-Fc chimera, carrier-free; not shown: Fc part of a purchased Fc chimera
T1 sequence (looked up): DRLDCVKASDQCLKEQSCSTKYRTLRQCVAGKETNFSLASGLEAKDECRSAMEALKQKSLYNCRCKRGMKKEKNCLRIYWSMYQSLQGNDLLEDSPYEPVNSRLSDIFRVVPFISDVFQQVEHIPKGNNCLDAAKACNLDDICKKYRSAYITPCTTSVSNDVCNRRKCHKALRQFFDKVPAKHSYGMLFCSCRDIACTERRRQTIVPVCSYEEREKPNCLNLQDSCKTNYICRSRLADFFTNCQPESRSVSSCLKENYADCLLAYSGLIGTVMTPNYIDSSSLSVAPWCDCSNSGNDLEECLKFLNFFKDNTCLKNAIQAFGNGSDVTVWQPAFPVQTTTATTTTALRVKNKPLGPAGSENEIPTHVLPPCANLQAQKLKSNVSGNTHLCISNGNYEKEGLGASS
Description: GDNF wild type and variants are tested in an ELISA assay, in which binding of the GDNF proteins to the plate-bound receptor (GFRα1) is measured. A “no GDNF” condition and/or an “irrelevant protein” condition are used as negative controls.
(§1) Each well of a 96-well plate (Greiner 655081 Immunobind ELISA plates) is coated with 70 μl of human GFRα1 (recombinant human GFRα1-Fc chimera, carrier-free) at 1 μg/ml in carbonate buffer, pH 9.6. If an irrelevant receptor is coated, it is an irrelevant Fc chimera and is coated at the same concentration as GFRα1. The plates are sealed and incubated at 4° C. overnight. The wells are aspirated and washed twice with washing buffer (20 mM Tris (hydroxymethyl) aminomethane, pH 7.4, 0.15 M NaCl, 0.1% Tween-20), using an automatic plate washer. The plates are blocked with 200 μl blocking buffer per well (3% Carnation Instant milk in the above washing buffer) for at least 1 hour at room temperature. Plates are washed twice with washing buffer.
GDNF proteins are serially diluted into blocking buffer at an appropriate concentration range, typically beginning at 5 μg/ml and serially diluting 1:10. A no GDNF control is used, which consists of blocking buffer alone. 50 μl of each GDNF solution is added to the GFRα1 coated wells in triplicate. The plates are incubated for 1.5 hours at room temperature. The wells are then washed 3 times with washing buffer.

[2] = biological target: T2, Recombinant Human GFRα-2/GDNF Rα-2 Fc Chimera (human, UniProt O00451 22-441); assay: SPR (Biacore 2000), human GFRα2-Fc captured on protein A, GDNF as analyte, 1:1 Langmuir, 25 C
T2 construct: Purchased Fc chimera; not shown: Fc part of a purchased Fc chimera
T2 sequence (looked up): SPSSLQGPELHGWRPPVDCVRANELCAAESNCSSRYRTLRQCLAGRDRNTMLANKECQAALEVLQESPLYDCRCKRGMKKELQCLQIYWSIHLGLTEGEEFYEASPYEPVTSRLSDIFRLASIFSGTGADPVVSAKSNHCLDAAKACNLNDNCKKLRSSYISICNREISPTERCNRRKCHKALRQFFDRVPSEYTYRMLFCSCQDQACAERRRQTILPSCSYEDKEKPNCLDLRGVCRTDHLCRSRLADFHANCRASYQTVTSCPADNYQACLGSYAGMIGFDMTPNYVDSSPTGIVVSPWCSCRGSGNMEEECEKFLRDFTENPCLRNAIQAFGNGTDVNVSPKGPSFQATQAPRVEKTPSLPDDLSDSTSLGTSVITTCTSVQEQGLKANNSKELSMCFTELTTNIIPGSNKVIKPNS
Description: (§2) A Biacore® 2000 instrument is used to measure the binding kinetics of GDNFv to human and rat GDNF family receptors (GFRα1 and GFRα2). Measurements are performed at 25° C. Samples are dissolved in HBS-EP buffer (150 mM sodium chloride, 3 mM EDTA, 0.005% (w/v) surfactant P-20, pH 7.4). Protein A, Staphylococcus aureus is immobilized on flow cells 1 to 4 of a CM4 sensor chip (GE Healthcare #BR-1005-39) at a level of ˜200 response units (RUs) using amine coupling chemistry to capture GFR Fc chimera (Recombinant Human GFRα-1/GDNF Rα-1 Fc Chimera; Recombinant Human GFRα-2/GDNF Rα-2 Fc Chimera; Recombinant Rat GFRα-1/GDNF Rα-1 Fc Chimera; Recombinant Mouse GFRα-2/GDNF Rα-2 Fc Chimera).
(§3) Binding is evaluated using multiple cycles. Each cycle consists of the following steps: 1) injection of about 10 μL of GFR at a concentration of ˜1.0 μg/mL and a flow rate of 10 μL/min., aiming at a capture of 120-150 RUs; 2) injection of 250 μL of GDNFv at a flow rate of 50 μL/min., in a final concentration rage between 10 nM and 0.04 nM followed by […]. for dissociation; and 3) regeneration using about 30 μL of 10 mM glycine hydrochloride, pH 1.5. Association and dissociation rates for each cycle are evaluated using a “1:1 (Langmuir) binding” model in the BIAevaluation software, version 4.1.

human c-Ret = human c-Ret (human, UniProt P07949 29-1114, phosphorylation at Y1016 is the readout); assay: cell-based or functional assay
human c-Ret, sequence (P07949 29-1114): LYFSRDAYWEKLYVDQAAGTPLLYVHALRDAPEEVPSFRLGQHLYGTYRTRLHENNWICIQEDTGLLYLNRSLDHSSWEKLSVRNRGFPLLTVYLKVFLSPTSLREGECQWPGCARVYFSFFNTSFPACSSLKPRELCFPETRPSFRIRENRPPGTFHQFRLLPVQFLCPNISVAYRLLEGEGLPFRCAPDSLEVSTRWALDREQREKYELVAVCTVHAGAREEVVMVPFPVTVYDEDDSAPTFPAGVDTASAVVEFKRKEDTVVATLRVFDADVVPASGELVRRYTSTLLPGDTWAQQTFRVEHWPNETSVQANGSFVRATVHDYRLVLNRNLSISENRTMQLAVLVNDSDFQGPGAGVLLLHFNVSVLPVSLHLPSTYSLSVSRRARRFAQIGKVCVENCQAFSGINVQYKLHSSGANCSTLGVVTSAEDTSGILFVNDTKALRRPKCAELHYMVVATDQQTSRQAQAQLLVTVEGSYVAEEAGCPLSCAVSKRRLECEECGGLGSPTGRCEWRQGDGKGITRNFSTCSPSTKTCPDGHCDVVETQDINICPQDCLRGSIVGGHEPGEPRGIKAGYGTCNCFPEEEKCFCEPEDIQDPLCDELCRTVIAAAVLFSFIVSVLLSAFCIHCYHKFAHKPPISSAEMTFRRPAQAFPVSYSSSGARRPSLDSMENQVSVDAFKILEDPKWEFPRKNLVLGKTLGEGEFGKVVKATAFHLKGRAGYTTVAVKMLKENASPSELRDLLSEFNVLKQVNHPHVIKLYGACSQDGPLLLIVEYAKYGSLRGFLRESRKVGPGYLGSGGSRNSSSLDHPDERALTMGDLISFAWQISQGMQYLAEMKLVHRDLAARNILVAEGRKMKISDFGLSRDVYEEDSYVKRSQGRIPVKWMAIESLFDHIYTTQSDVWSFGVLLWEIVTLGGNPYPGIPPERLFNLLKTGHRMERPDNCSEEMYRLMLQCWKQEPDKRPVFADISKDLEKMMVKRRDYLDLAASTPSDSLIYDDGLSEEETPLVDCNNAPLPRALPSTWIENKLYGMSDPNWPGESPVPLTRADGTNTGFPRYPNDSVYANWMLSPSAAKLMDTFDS

[3] = biological target: T1, Recombinant Human GFRα-1/GDNF Rα-1 Fc …; assay: ELISA, plate-bound human GFRα1-Fc; upper end of the 95% confidence range, n = 8
Description: as §1, with “buffer. […]” for “buffer.”
(§4) A 50 μl aliquot of horseradish peroxidase-conjugated streptavidin (Jackson ImmunoResearch, catalog #016-030-084), diluted 1:1000 in blocking buffer, is added to each well and incubated for 20-30 minutes at room temperature. […] The absorbance of the wells is read at 490 nm on a Molecular Devices SpectraMax250 plate reader. The average absorbance for the triplicate wells for each condition are determined, and the resulting values are processed for EC₅₀ calculation with Graph Pad Prism software to provide a 95% confidence range.

[4] = biological target: T1, Recombinant Human GFRα-1/GDNF Rα-1 Fc …; assay: ELISA, plate-bound human GFRα1-Fc; lower end of the 95% confidence range, n = 8
Description: as §1, with “buffer. […]” for “buffer.”
as §4

[5] = biological target: T1, Recombinant Human GFRα-1/GDNF Rα-1 Fc …; assay: Biacore (SPR), GFRα-1; 4 C sample of the 4-week stability comparison
[6] = biological target: T1, Recombinant Human GFRα-1/GDNF Rα-1 Fc …; assay: SPR (Biacore 2000), GFRα1-Fc captured on protein A, GDNF as analyte, 1:1 Langmuir, 25 C; in the presence of 400 mM NaCl
[7] = biological target: T1, Recombinant Human GFRα-1/GDNF Rα-1 Fc …; assay: SPR (Biacore 2000), GFRα1-Fc captured on protein A, GDNFv as analyte, 1:1 Langmuir, 25 C
Description: as §2, §3

[8] = biological target: T2, Recombinant Human GFRα-2/GDNF Rα-2 Fc …; assay: SPR (Biacore 2000), human GFRα2-Fc captured on protein A, GDNFv as analyte, 1:1 Langmuir, 25 C
Description: as §2, §3

[9] = biological target: T3, Recombinant Rat GFRα-1/GDNF Rα-1 Fc Chimera (rat, UniProt Q62997 25-445); assay: SPR (Biacore 2000), rat GFRα1-Fc captured on protein A, GDNFv as analyte, 1:1 Langmuir, 25 C
T3 construct: Purchased Fc chimera; not shown: Fc part of a purchased Fc chimera
T3 sequence (looked up): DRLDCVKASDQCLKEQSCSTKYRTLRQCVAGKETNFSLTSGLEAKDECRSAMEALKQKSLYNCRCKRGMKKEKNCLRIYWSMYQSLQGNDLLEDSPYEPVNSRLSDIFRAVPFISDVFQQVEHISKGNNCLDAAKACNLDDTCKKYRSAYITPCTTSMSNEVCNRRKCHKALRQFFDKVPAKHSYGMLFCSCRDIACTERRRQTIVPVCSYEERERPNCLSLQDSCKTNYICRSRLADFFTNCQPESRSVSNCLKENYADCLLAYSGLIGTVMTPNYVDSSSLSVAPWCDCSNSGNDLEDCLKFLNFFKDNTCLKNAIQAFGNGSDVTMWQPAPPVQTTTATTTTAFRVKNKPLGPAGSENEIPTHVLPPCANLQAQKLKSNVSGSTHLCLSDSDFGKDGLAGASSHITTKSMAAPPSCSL
Description: as §2, §3

EC50 [1]: 0.4 nM | Kd [2]: 0.1 nM | koff [2]: 0.00026 s⁻¹ | kon [2]: 2.4e+06 M⁻¹ s⁻¹ | c-Ret phosphorylation at Y1016, EC50 (human c-Ret): 0.008 to 0.015 µg/mL | EC50 [3]: 0.3 to 0.4 nM | EC50 [4]: 0.3 to 0.4 nM | Kd [5]: 0.064 nM | Kd [6]: 0.064 nM | koff [6]: 0.00035 s⁻¹ | kon [6]: 6e+06 M⁻¹ s⁻¹
B1: E. Coli-WT-GDNF (SEQ ID NO: 3) (ligand)
chain: MSPDKQMAVLPRRERNRQAAAANPENSRGKGRRGQRGKNRGCVLTAIHLNVTDLGLGYETKEELIFRYCSGSCDAAETTYDKILKNLSRNRRLVSDKVGQACCRPIAFDDDLSFLDDNLVYHILRKHSAKRCGCI
notes: Expressed in E. coli, not glycosylated; also called WT E. coli GDNF; WT-E. coli GDNF

Kd [7]: 0.047 nM | koff [7]: 0.00016 s⁻¹ | kon [7]: 3.9e+06 M⁻¹ s⁻¹
B2: E. coli-Δ31-N38Q-D95E-GDNF (SEQ ID NO: 9) (ligand)
chain: RGQRGKQRGCVLTAIHLNVTDLGLGYETKEELIFRYCSGSCDAAETTYDKILKNLSRNRRLVSEKVGQACCRPIAFDDDLSFLDDNLVYHILRKHSAKRCGCI
notes: also called GDNF variant 2; clone D9

Kd [7]: 0.035 nM | koff [7]: 0.00016 s⁻¹ | kon [7]: 5e+06 M⁻¹ s⁻¹
B3: E. Coli-Δ31-N38Q-K84A-R88K-R90K-D95E-GDNF (SEQ ID NO: 12) (ligand)
chain: B2 chain with K53A, R57K, R59K
notes: also called Δ31-N38Q-KAKKE; GDNF variant 3

Kd [7]: 0.044 nM | koff [7]: 0.00017 s⁻¹ | kon [7]: 4.2e+06 M⁻¹ s⁻¹
B4: E. Coli-Δ31-GDNF (SEQ ID NO: 8) (ligand)
chain: B2 chain with Q7N, E64D
notes: The NdeI start codon encodes a Met before R32; also called Delta-31 GDNF; Variant 1

c-Ret phosphorylation at Y1016, EC50 (human c-Ret): 0.008 to 0.015 µg/mL | Kd [7]: 0.029 nM | koff [7]: 0.00014 s⁻¹ | kon [7]: 6.2e+06 M⁻¹ s⁻¹ | Kd [8]: 0.044 nM | koff [8]: 0.00042 s⁻¹ | kon [8]: 9.6e+06 M⁻¹ s⁻¹ | Kd [5]: 0.029 nM | Kd [9]: 0.021 nM | koff [9]: 0.00021 s⁻¹ | kon [9]: 9.9e+06 M⁻¹ s⁻¹
B5: CHO-Δ31-N38Q-K84A-R88K-R90K-D95E-GDNF (SEQ ID NO: 12) (ligand)
chain: B2 chain with K53A, R57K, R59K
modifications: N-glycosylated at N49 (numbering of mature GDNF)
notes: Expressed in CHO cells; also called Δ31-N38Q-KAKKE; GDNF variant 3

c-Ret phosphorylation at Y1016, EC50 (human c-Ret): 0.008 to 0.015 µg/mL
B6: CHO Δ31-N38Q-K84A-R88K-R90K-D95E-K125E-R130E GDNF (SEQ ID NO: 15) (ligand)
chain: B2 chain with K53A, R57K, R59K, K94E, R99E
